From PMC7265331

Target: Cab45 (UniProt Q9BRK5)
Assay: GFP-Cab45 oligomerization assay, confocal microscopy
Conditions: reference: GFP-Cab45-WT; sites S99,T131,S142,T193,S349

- other: share of oligomers with maximum intensity <500 a.u.: same; reference 55
Substance: Cab45 (from UniProt Q9BRK5) GFP-Cab45-5pXE
